# Laboratory results as given in patent publication US20200087400A1 (EUREKA THERAPEUTICS, published 2020).
# Legend:
# [1] = target: T1, HLA-A*02:01 on T2 cells with no peptide loaded (human); experiment: FACS; scFv phage on T2 cells without peptide
# T1 construct: TAP-deficient T2 cells, no peptide loaded from outside; also called T2 cells without peptide loading
# Procedure: (§1) Individual phage clones from enriched phage display panning pools against PSA146/HLA-A*02:01 complex were incubated in the coated plates. Binding of the phage clones was detected by HRP-conjugated anti-M13 antibodies and developed using HRP substrate. The absorbance was read at 450 nm. […] Then, unique antibody clones were identified through DNA sequencing of ELISA-positive clones. […] T2 cells loaded with different peptides and β2M were first stained with purified scFv phage clones, followed by staining with a mouse anti-M13 mAb, and finally R-PE conjugated horse anti-mouse IgG from Vector Labs. Each step of the staining was performed for between 30-60 minutes on ice and the cells were washed twice between stainings. All 16 clones recognized PSA146-loaded T2 cells specifically. FIG. 3 provides examples of PSA146/HLA-A*02:01 specific phage clone binding to peptide-loaded T2 cells through FACS.
# [2] = target: T2, control peptide A2E-6/HLA-A*02:01 complex on T2 cells (member of the P19 mixture) (human); experiment: FACS; scFv phage on T2 cells loaded with the P19 mixture
# T2 construct: Loaded on T2 cells as part of the mixture of 19 control peptides
# Procedure: as §1
# [3] = target: T3, control peptide A2E-4/HLA-A*02:01 complex on T2 cells (member of the P19 mixture) (human); experiment: as above
# T3 construct: Loaded on T2 cells as part of the mixture of 19 control peptides
# Procedure: as §1
# [4] = target: T4, control peptide A2E-23/HLA-A*02:01 complex on T2 cells (member of the P19 mixture) (human); experiment: as above
# T4 construct: Loaded on T2 cells as part of the mixture of 19 control peptides
# Procedure: as §1
# [5] = target: T5, control peptide A2E-21/HLA-A*02:01 complex on T2 cells (member of the P19 mixture) (human); experiment: as above
# T5 construct: Loaded on T2 cells as part of the mixture of 19 control peptides
# Procedure: as §1
# [6] = target: T6, control peptide A2E-10/HLA-A*02:01 complex on T2 cells (member of the P19 mixture) (human); experiment: as above
# T6 construct: Loaded on T2 cells as part of the mixture of 19 control peptides
# Procedure: as §1
# [7] = target: T7, control peptide A2E-17/HLA-A*02:01 complex on T2 cells (member of the P19 mixture) (human); experiment: as above
# T7 construct: Loaded on T2 cells as part of the mixture of 19 control peptides
# Procedure: as §1
# [8] = target: T8, control peptide A2E-16/HLA-A*02:01 complex on T2 cells (member of the P19 mixture) (human); experiment: as above
# T8 construct: Loaded on T2 cells as part of the mixture of 19 control peptides
# Procedure: as §1
# [9] = target: T9, control peptide A2E-5/HLA-A*02:01 complex on T2 cells (member of the P19 mixture) (human); experiment: as above
# T9 construct: Loaded on T2 cells as part of the mixture of 19 control peptides
# Procedure: as §1
# [10] = target: T10, control peptide A2E-3/HLA-A*02:01 complex on T2 cells (member of the P19 mixture) (human); experiment: as above
# T10 construct: Loaded on T2 cells as part of the mixture of 19 control peptides
# Procedure: as §1
# [11] = target: T11, control peptide A2E-11/HLA-A*02:01 complex on T2 cells (member of the P19 mixture) (human); experiment: as above
# T11 construct: Loaded on T2 cells as part of the mixture of 19 control peptides
# Procedure: as §1
# [12] = target: T12, control peptide A2E-15/HLA-A*02:01 complex on T2 cells (member of the P19 mixture) (human); experiment: as above
# T12 construct: Loaded on T2 cells as part of the mixture of 19 control peptides
# Procedure: as §1
# [13] = target: T13, control peptide A2E-7/HLA-A*02:01 complex on T2 cells (member of the P19 mixture) (human); experiment: as above
# T13 construct: Loaded on T2 cells as part of the mixture of 19 control peptides
# Procedure: as §1
# [14] = target: T14, control peptide A2E-19/HLA-A*02:01 complex on T2 cells (member of the P19 mixture) (human); experiment: as above
# T14 construct: Loaded on T2 cells as part of the mixture of 19 control peptides
# Procedure: as §1
# [15] = target: T15, control peptide A2E-14/HLA-A*02:01 complex on T2 cells (member of the P19 mixture) (human); experiment: as above
# T15 construct: Loaded on T2 cells as part of the mixture of 19 control peptides
# Procedure: as §1
# [16] = target: T16, control peptide A2E-1/HLA-A*02:01 complex on T2 cells (member of the P19 mixture) (human); experiment: as above
# T16 construct: Loaded on T2 cells as part of the mixture of 19 control peptides
# Procedure: as §1
# [17] = target: T17, control peptide A2E-13/HLA-A*02:01 complex on T2 cells (member of the P19 mixture) (human); experiment: as above
# T17 construct: Loaded on T2 cells as part of the mixture of 19 control peptides
# Procedure: as §1
# [18] = target: T18, control peptide A2E-9/HLA-A*02:01 complex on T2 cells (member of the P19 mixture) (human); experiment: as above
# T18 construct: Loaded on T2 cells as part of the mixture of 19 control peptides
# Procedure: as §1
# [19] = target: T19, control peptide A2E-2/HLA-A*02:01 complex on T2 cells (member of the P19 mixture) (human); experiment: as above
# T19 construct: Loaded on T2 cells as part of the mixture of 19 control peptides
# Procedure: as §1
# [20] = target: T20, control peptide A2E-8/HLA-A*02:01 complex on T2 cells (member of the P19 mixture) (human); experiment: as above
# T20 construct: Loaded on T2 cells as part of the mixture of 19 control peptides
# Procedure: as §1
# [21] = target: T21, PSA 146-154 peptide/HLA-A*02:01 complex on the cell surface (human); experiment: FACS; scFv phage on PSA146-loaded live T2 cells
# T21 construct: also called PSA146/HLA-A*02:01; PSA146-loaded T2 cells
# Procedure: as §1
binder,measurement,setting,value
"PSA146/HLA-A*02:01-specific scFv phage clone #8 (scFv, V domains shown) VH: QVQLQQWGAGLLKPSETLSLTCAVKGGSFSDYYWSWIRQPPGKGLEWIGEINHSGGTNYNPSLKSRVTISVDTSKNQFSLKLLSVTAADTAVYYCARYNEYGSGYDKWGQGTLVTVSS VL: QSVLTQPPSVSAAPGQKVTISCSGSSYNIGNNYVSWYQQLPGTAPKLLIYDNNKRPSGIPDRFSGSKSGTSATLGITGLQTGDEAEYYCGTWESSLSAYVFGTGTKVTVLG",binding result,[1],no binding
same,binding result,[2],no binding
same,binding result,[3],no binding
same,binding result,[4],no binding
same,binding result,[5],no binding
same,binding result,[6],no binding
same,binding result,[7],no binding
same,binding result,[8],no binding
same,binding result,[9],no binding
same,binding result,[10],no binding
same,binding result,[11],no binding
same,binding result,[12],no binding
same,binding result,[13],no binding
same,binding result,[14],no binding
same,binding result,[15],no binding
same,binding result,[16],no binding
same,binding result,[17],no binding
same,binding result,[18],no binding
same,binding result,[19],no binding
same,binding result,[20],no binding
same,binding result,[21],binds
